Results published in US20230009582A1 (MEMO THERAPEUTICS, published 2023).

Tests used:
[1] = molecular target: Siglec-9 protein (construct not stated; antigen of Examples 3 and 4) (human, UniProt Q9Y336 18-348, limits assumed); test: ELISA, coated Siglec-9 1 µg/ml, antibody titrated, anti-human Fab detection, Abs 450 nm, three-parameter fit, n=3
Experimental: FIG. 2: Binding curves of monoclonal antibodies (68D4 and 224B1; comparative monoclonal antibodies mAbA and 5C6 & negative control 53C3) towards Siglec-9 as analysed by ELISA. Binding of the monoclonal antibody to Siglec-9, as determined by measurement of the accumulated coloured product at 450 nm after stopping the reaction, is plotted against the concentration of the monoclonal antibody under evaluation.
Antibody binding affinity towards Siglec-9 was measured by a dilution series of the analysed antibodies on a fixed concentration of Siglec-9 protein in ELISA. To this end, Siglec-9 was coated at 1 μg/ml in 50 mM carbonate-bicarbonate buffer pH 9.6 for 15-20 hours at 4° C. Antigen solution was washed away (Tecan Hydrospeed) and plates were blocked with 5% skimmed milk in phosphate-buffered saline (PBS) for 1 hour at room temperature. Plates were washed and antibodies were added at concentrations of 0-420 nM. […] Bound antibodies were detected by addition of horseradish peroxidase (HRP)-coupled secondary antibodies. Rabbit antibodies were detected by polyclonal anti-rabbit IgG antibody (Biolegend), mAbA by anti-human Fab fragment (Sigma Aldrich). […] Absorbance was detected at 450 nm (Tecan, CM […] MONO 200). Data were fitted and EC50 values were determined by three-parameter analysis in GraphPad Prism (GraphPad Software)

[2] = molecular target: T1, Siglec-9 expressed on cells (human, UniProt Q9Y336 18-463); test: flow cytometry on human CD14+ monocytes (PBMC), mean RFU of the anti-human secondary antibody, three-parameter fit
T1 construct: also called monocyte-expressed Siglec-9
T1 sequence (Q9Y336 18-463 limits assumed): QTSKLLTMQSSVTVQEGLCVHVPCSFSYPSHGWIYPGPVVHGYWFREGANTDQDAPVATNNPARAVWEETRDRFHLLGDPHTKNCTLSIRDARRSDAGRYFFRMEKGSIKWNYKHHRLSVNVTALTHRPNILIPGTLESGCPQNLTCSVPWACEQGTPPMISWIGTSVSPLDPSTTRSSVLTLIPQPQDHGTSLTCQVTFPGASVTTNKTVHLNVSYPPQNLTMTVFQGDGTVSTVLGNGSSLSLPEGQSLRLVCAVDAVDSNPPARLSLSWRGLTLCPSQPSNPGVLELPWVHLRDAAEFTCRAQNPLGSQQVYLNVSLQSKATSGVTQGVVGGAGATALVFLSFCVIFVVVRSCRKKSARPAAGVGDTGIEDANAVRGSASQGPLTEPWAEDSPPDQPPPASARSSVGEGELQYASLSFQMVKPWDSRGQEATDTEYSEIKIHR
Experimental: Human ex vivo PBMC were stained with fluorescence-labeled (allophycocyanin, APC) antibody to the monocyte marker CD14 (Biolegend) in assay buffer (0.5% (v/v) heat-inactivated fetal bovine serum (Gibco), 2 mM EDTA in phosphate-buffered saline). Subsequently, cells were incubated with antibodies under evaluation at various concentrations (67 nM-0.38 pM). After a washing step cells were incubated with fluorescence-labeled (Brilliant Violet 421™) secondary antibody against human IgG (mAbA) or rabbit IgG (all other monoclonal antibodies under evaluation; both secondary antibodies from Biolegend).
Binding of Siglec-9-specific antibodies to monocytes (CD14-positive life cells) was analysed with a CytoFLEX flow cytometer (Beckham Coulter's). The mean fluorescence intensity of the secondary antibody staining in the CD14-positive population at each dilution was determined using Flow Jo software (BD). Datapoints generated by this analysis were fitted and EC50 values were determined by three-parameter analysis in GraphPad Prism (GraphPad Software)

Chain of Siglec-9 protein (construct not stated; antigen of Examples 3 and 4) (Q9Y336 18-348 limits assumed): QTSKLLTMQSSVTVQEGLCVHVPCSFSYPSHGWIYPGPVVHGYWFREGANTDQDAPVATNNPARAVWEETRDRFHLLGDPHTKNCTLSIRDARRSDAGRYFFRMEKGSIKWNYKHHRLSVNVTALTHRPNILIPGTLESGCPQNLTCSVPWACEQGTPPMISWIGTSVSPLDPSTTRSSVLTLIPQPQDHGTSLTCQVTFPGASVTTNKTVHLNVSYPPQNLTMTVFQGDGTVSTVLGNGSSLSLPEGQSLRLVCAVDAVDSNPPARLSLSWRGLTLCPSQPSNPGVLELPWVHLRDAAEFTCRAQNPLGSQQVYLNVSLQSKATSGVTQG

B1: comparative monoclonal antibody mAbA (WO 2017/153433), mouse-human chimera (antibody, human IgG1, kappa, V domains shown)
VH: QVQLQQPGAELVKPGSPVKLSCKASYFTFTSYWMHWVRQRPGQGLEWIGEINPSNGHTNYNEKFESKATLTVDRSSSTAYMQLSSLTSEDSAVFYCANGVESYDFDDALDYWGQGTSVTVSS
VL: DIQMTQTTSSLSASLGDRVTISCRASQDINNYLNWYQQKPDGTIKLLIYYTSRLHSGVPSRFSGSGSGTDYSLTINNLEQEDIATYFCQQGNTLPFTFGGGTKLEIKR
EC50 [1]: 0.42 nM | EC50 [2]: 0.58 nM
